Where no end group is shown, it is not given here.

To fix the notation:
B1: Phage-2227 (peptide)
peptide: SELWCIPPWMCNFL
B2: Phage-2234 (peptide)
peptide: MPNWCTPTWMCQGF
B3: Phage-2222 (peptide)
peptide: TEKWCIPQWMCEAT
modifications: cysteine pairing not given here; also: displayed on phage, fused to pIII
notes: Peptide-180 library clone, tested as clonal phage (peptide fused to the pIII filament of the bacteriophage)
B4: Phage-2232 (peptide)
peptide: QLNWCRPAWMCEGF
B5: Phage-2229 (peptide)
peptide: LLKWCTPPWMCELH
B6: Phage-2230 (peptide)
peptide: TDMWCIPPWMCERI
B7: Phage-2231 (peptide)
peptide: LSKWCIPEWMCAVM
modifications: cysteine pairing not given here; also: pIII fusion on bacteriophage (not given here)
B8: Phage-2224 (peptide)
peptide: AIKWCTPPWMCDWH
B9: Phage-2223 (peptide)
peptide: FLKWCTPEWMCSDV
B10: Phage-2225 (peptide)
peptide: LFKVCTPSWMCSGF
B11: Phage-2228 (peptide)
peptide: LVKWCIPQWMCEQA
B12: Phage-2226 (peptide)
peptide: LAYWCTPAWMCEGF
B13: Phage-2233 (peptide)
peptide: EIQWCTPSWMCPWL
B14: Phage-2210 (peptide)
peptide: THNWCTPQWMCDGF
notes: Tested as clonal phage supernatant, with the peptide fused to pIII of the bacteriophage
B15: Phage-2208 (peptide)
peptide: ALHWCIPEWMCSSM
notes: as for B14
B16: Phage-2209 (peptide)
peptide: QDHWCVPQWMCEML
notes: as for B14
B17: Phage-2211 (peptide)
peptide: PGKWCIPAWMCSLV
notes: as for B14
B18: Phage-2220 (peptide)
peptide: EPKWCTPEWMCLNL
notes: as for B14
B19: Phage-2215 (peptide)
peptide: GVKWCTPPWMCEVA
notes: as for B14
B20: Phage-2217 (peptide)
peptide: EVKWCIPSWMCESE
notes: as for B14
B21: Phage-2207 (peptide)
peptide: PTKWCIPEWMCSVI
notes: as for B14
B22: Phage-2218 (peptide)
peptide: VPKQCVPEWMCSGF
notes: as for B14
B23: Phage-2221 (peptide)
peptide: GHQWCIPQWMCVGL
notes: as for B14
B24: Phage-2216 (peptide)
peptide: WAQWCTPSWMCEGF
notes: as for B14
B25: Phage-2206 (peptide)
peptide: LEKWCIPAWMCAVL
modifications: cysteine pairing not given here; also: fused to pIII of bacteriophage
notes: as for B14
B26: Phage-2213 (peptide)
peptide: VIPLCSPPWMCFMS
notes: as for B14
B27: Phage-2214 (peptide)
peptide: PEKWCIPEWMCDAL
notes: Tested as clonal phage supernatant, with the peptide fused to pIII of the bacteriophage; Read from the row with '-' as the Peptide-180 residue: PEKWCIPEWMCDAL
B28: Phage-2219 (peptide)
peptide: SENWCIPAWMCSGF
notes: as for B14
B29: Phage-2212 (peptide)
peptide: TEKWCIPSWMCEIS
notes: as for B14
B30: Phage-1995 (peptide)
peptide: MGKWCIPPWMCVVD
notes: tested as crude phage supernatant
B31: Phage-1996 (peptide)
peptide: GSNWCKPAWMCEIM
notes: as for B30

One assay has as its target T1, Anti-PSMA Fab (SEQ ID NOs: 19, 20).
T1 construct: Biotinylated and captured on neutravidin coated plates in the phage ELISA; also called 006 PSMA Fab
Briefly: phage binding ELISA, clonal phage on plate-captured biotinylated PSMA Fab. For orientation: In an ELISA, binding on a coated surface is turned into a signal by an enzyme label.
Experimental: (§1) Clonal phage were harvested as crude supernatants and screened via standard ELISAs. […] Prior to the addition of clonal phage. wells were incubated with blocking buffer and PSMA antigen or blocking buffer alone. Without washing or aspirating, clonal phage supernatants were then added to the wells and incubated for a short time. Wells were then washed followed by detection of bound phage using a horse radish conjugated anti-M13 antibody.
As for B1, the “Anti-PSMA Fab (SEQ ID NOs: 19, 20) signal” value turned out to be 1.57.

Regarding B2, the “Anti-PSMA Fab (SEQ ID NOs: 19, 20) signal” value is 1.57.

As to B3, the “Anti-PSMA Fab (SEQ ID NOs: 19, 20) signal” value is 1.58.

As for B4, the “Anti-PSMA Fab (SEQ ID NOs: 19, 20) signal” value is 1.57.

In the case of B5, the “Anti-PSMA Fab (SEQ ID NOs: 19, 20) signal” value worked out at 1.57.

For the molecule B6, the “Anti-PSMA Fab (SEQ ID NOs: 19, 20) signal” value came out at 1.57.

Turning to B7, the “Anti-PSMA Fab (SEQ ID NOs: 19, 20) signal” value worked out at 1.57.

Regarding B8, the “Anti-PSMA Fab (SEQ ID NOs: 19, 20) signal” value is 1.58.

Take B9: the “Anti-PSMA Fab (SEQ ID NOs: 19, 20) signal” value is 1.58.

Turning to B10, the “Anti-PSMA Fab (SEQ ID NOs: 19, 20) signal” value was 1.58.

Take B11: the “Anti-PSMA Fab (SEQ ID NOs: 19, 20) signal” value worked out at 1.57.

For B12, the “Anti-PSMA Fab (SEQ ID NOs: 19, 20) signal” value is 1.57.

For the molecule B13, the “Anti-PSMA Fab (SEQ ID NOs: 19, 20) signal” value was found to be 1.57.

The next assay addresses T2, Anti-PSMA Fab (SEQ ID NOs: 19, 20).
T2 construct: Biotinylated and captured on neutravidin coated plates in the phage ELISA; also called 006 PSMA Fab
Put plainly: phage ELISA; biotinylated PSMA Fab on neutravidin plate, bound phage detected with anti-M13-HRP.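 Note: crude clonal phage supernatants added, without a wash, to wells pretreated with PSMA antigen in blocking buffer or with blocking buffer only, then briefly incubated.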
Experimental: as §1
Take B14: the “Phage binding ELISA, Anti-PSMA Fab signal” value worked out at 1.6.

With B15, the “Phage binding ELISA, Anti-PSMA Fab signal” value amounted to 1.61.

For B16, the “Phage binding ELISA, Anti-PSMA Fab signal” value was determined as 1.61.

With B17, the “Phage binding ELISA, Anti-PSMA Fab signal” value is 1.6.

As for B18, the “Phage binding ELISA, Anti-PSMA Fab signal” value amounted to 1.58.

On to B19, for which the “Phage binding ELISA, Anti-PSMA Fab signal” value was 1.59.

Turning to B20, the “Phage binding ELISA, Anti-PSMA Fab signal” value was determined as 1.59.

On to B21, for which the “Phage binding ELISA, Anti-PSMA Fab signal” value is 1.61.

B22: the “Phage binding ELISA, Anti-PSMA Fab signal” value turned out to be 1.59.

In the case of B23, the “Phage binding ELISA, Anti-PSMA Fab signal” value is 1.58.

Take B24: the “Phage binding ELISA, Anti-PSMA Fab signal” value is 1.59.

Regarding B25, the “Phage binding ELISA, Anti-PSMA Fab signal” value amounted to 1.61.

As to B26, the “Phage binding ELISA, Anti-PSMA Fab signal” value came out at 1.6.

Regarding B27, the “Phage binding ELISA, Anti-PSMA Fab signal” value was 1.6.

Turning to B28, the “Phage binding ELISA, Anti-PSMA Fab signal” value amounted to 1.59.

For the molecule B29, the “Phage binding ELISA, Anti-PSMA Fab signal” value was found to be 1.6.

The next assay concerns the target T1, Anti-PSMA Fab (SEQ ID NOs: 19, 20). Briefly: phage binding ELISA on plate-captured PSMA Fab, wells pre-incubated with PSMA antigen as competitor.
Experimental: as §1
As for B1, the “Anti-PSMA Fab signal in the presence of PSMA” value was 0.0684.

On to B2, for which the “Anti-PSMA Fab signal in the presence of PSMA” value was 0.0682.

In the case of B3, the “Anti-PSMA Fab signal in the presence of PSMA” value is 0.0783.

For the molecule B4, the “Anti-PSMA Fab signal in the presence of PSMA” value is 0.128.

With B5, the “Anti-PSMA Fab signal in the presence of PSMA” value was 0.0932.

Regarding B6, the “Anti-PSMA Fab signal in the presence of PSMA” value came to 0.0846.

As for B7, the “Anti-PSMA Fab signal in the presence of PSMA” value was determined as 0.0848.

Consider B8, for which the “Anti-PSMA Fab signal in the presence of PSMA” value came out at 0.131.

As for B9, the “Anti-PSMA Fab signal in the presence of PSMA” value was determined as 0.128.

With B10, the “Anti-PSMA Fab signal in the presence of PSMA” value amounted to 0.0813.

As to B11, the “Anti-PSMA Fab signal in the presence of PSMA” value was 0.0712.

B12: the “Anti-PSMA Fab signal in the presence of PSMA” value worked out at 0.112.

For B13, the “Anti-PSMA Fab signal in the presence of PSMA” value was 0.0668.

The next assay deals with T3, Anti-PSMA Fab (SEQ ID NOs: 19, 20).
T3 construct: Biotinylated and captured on neutravidin coated plates in the phage ELISA; also called 006 PSMA Fab
Briefly: phage ELISA; PSMA Fab on plate pre-incubated with PSMA antigen as competitor, anti-M13-HRP detection.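 Note: clonal phage from crude supernatants added without washing to wells preblocked with or without PSMA antigen, washed, bound phage read out by ELISA with HRP-linked anti-M13 antibody.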
Experimental: as §1
For B30, the “Phage binding ELISA, Anti-PSMA Fab signal in the presence of PSMA” value (“Phage binding ELISA … of PSMA” for short) is 0.123.

In the case of B31, the “Phage binding ELISA … of PSMA” value amounted to 0.0723.

For another assay, the target named is T2, Anti-PSMA Fab (SEQ ID NOs: 19, 20). Described as above.
Experimental: as §1
In the case of B14, the “Phage binding ELISA … of PSMA” value came out at 0.0628.

As for B15, the “Phage binding ELISA … of PSMA” value was found to be 0.103.

Turning to B16, the “Phage binding ELISA … of PSMA” value stood at 0.07.

For B17, the “Phage binding ELISA … of PSMA” value amounted to 0.157.

For B18, the “Phage binding ELISA … of PSMA” value worked out at 0.0915.

As for B19, the “Phage binding ELISA … of PSMA” value worked out at 0.0672.

Consider B20, for which the “Phage binding ELISA … of PSMA” value was 0.0904.

For B21, the “Phage binding ELISA … of PSMA” value came to 0.0587.

In the case of B22, the “Phage binding ELISA … of PSMA” value is 0.0779.

On to B23, for which the “Phage binding ELISA … of PSMA” value was determined as 0.0809.

As to B24, the “Phage binding ELISA … of PSMA” value turned out to be 0.0929.

Turning to B25, the “Phage binding ELISA … of PSMA” value was 0.078.

As to B26, the “Phage binding ELISA … of PSMA” value came out at 0.0631.

In the case of B27, the “Phage binding ELISA … of PSMA” value is 0.0578.

As to B28, the “Phage binding ELISA … of PSMA” value is 0.111.

As for B29, the “Phage binding ELISA … of PSMA” value was determined as 0.0837.

The target of the next assay is T3, Anti-PSMA Fab (SEQ ID NOs: 19, 20). Put plainly: phage ELISA; biotinylated PSMA Fab on neutravidin plate, clonal phage supernatant, anti-M13-HRP detection.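 Note: wells were preincubated with blocking buffer containing PSMA antigen or with blocking buffer only, then phage supernatant was added without washing for a brief incubation.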
Experimental: as §1
With B30, the “Phage binding ELISA, Anti-PSMA Fab signal” value was found to be 1.86.

For the molecule B31, the “Phage binding ELISA, Anti-PSMA Fab signal” value was 1.86.

The record behind these values is patent US20260242478A1 (published 2026).
